The text below walks through data of patent US5871954A, “Fatty acid analog enzyme substrates” (Washington University, priority 1993, dated 1999).

One series addresses T1, yeast NMT (Saccharomyces cerevisiae, UniProt P14743).
T1 construct: 11,000-fold purified preparation of yeast NMT; from tissue; host or cells: yeast
T1 sequence (P14743 1-455): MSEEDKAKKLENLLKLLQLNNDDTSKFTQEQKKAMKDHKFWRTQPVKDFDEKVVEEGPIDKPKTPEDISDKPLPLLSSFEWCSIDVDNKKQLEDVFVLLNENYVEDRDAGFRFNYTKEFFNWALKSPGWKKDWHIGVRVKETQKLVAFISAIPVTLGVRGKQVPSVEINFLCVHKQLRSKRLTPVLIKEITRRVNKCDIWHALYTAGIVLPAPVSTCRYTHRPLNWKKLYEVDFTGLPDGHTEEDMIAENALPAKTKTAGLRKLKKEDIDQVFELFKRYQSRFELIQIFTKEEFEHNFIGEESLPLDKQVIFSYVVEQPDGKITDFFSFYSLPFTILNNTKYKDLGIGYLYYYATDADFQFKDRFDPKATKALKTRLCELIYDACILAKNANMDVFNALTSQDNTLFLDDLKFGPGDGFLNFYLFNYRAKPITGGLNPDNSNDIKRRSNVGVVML
Put plainly: in vitro yeast NMT assay, kinetics of fatty acid analog substrates with iodinated peptide GNAAS[125I]YRR. Format: biochemical. Particulars: Table 2; relative to myristate control 100%; peptide at its Km. The source says:
(§1) Similar results were obtained using an 11,000-fold purified preparation of yeast NMT [Towler et al., Proc. Natl. Acad. Sci. USA 84, 2708-2712 (1987)].
(§2) Other illustrative examples of the oxy- and thio-substituted fatty acid analog substrate compounds of the invention were synthesized in Examples 6 to 14 and tested in Example 15 as substrates for the yeast NMT.
(§3) For these Examples, each analog synthesized is characterized by ^1 H and 13C NMR as well as mass spectroscopy. The analogs are then characterized kinetically as NMT substrates. Briefly, fatty acid analogs are converted to their CoA esters with Pseudomonas CoA ligase and incubated with the iodinated peptide GNAAS[^125 I]YRR and a source of NMT. […] The radiolabelled peptide is then used at concentrations which will lead to 50% enzyme saturation (i.e., at its Km) for the determination of fatty acid analog kinetic characteristics. Representative analogs with sulfur or oxygen in the backbone of the fatty acid chain serve as good substrates for NMT in vitro and will compete for incorporation of ^3 H labelled myri-state into yeast proteins in vivo. In addition, these analogs differ markedly in hydrophobicity from myri-state as measured both by C18 reverse phase HPLC elution profiles and by 2-octanol/water partition coefficients. The analog CH3 O (CH2)11 COOH, for example, partitions into water 20 fold better than myristate. It is believed that these analogs will be incorporated into mammalian acylproteins in vivo and that their incorporation into these proteins will drastically alter protein processing or targeting. It is further believed that the incorporation of fatty acid analogs of both myristate and palmitate into ester linked and phosphatidyl inositol glycan linked acylproteins will also dramatically alter their properties. Since many viral proteins and oncogenes are acylated, these compounds represent a new class of potential antiviral and antineoplastic agents.

Series [1] in a line: 2-octanol/water partition. Format: physicochemical. Here is the method:
as §3, with “It is further believed that the incorporation of fatty acid analogs of both myristate and palmitate into ester linked and phosphatidyl inositol glycan linked acylproteins will also dramatically alter their properties. Since many viral proteins and oncogenes are acylated, these compounds represent a new class of potential antiviral and antineoplastic agents.” left out

Series [2] deals with known yeast myristoylprotein of Mr 20 kDa. The series can be described thus: competition for incorporation of [3H]myristate into a yeast myristoylprotein. Format: cell-based, Saccharomyces cerevisiae strain BJ405. Particulars: in words. Here is the method:
(§4) Saccharomyces cerevisiae strain BJ405 [MATα, trpl, prbl, prcl, pep4-3; Hemmings et al., Proc. Natl. Acad. Sci. USA 78, 435-439 (1981)] (previously referred to as JR153) was grown to mid-log phase (OD660nm=1.0-1.2) in YPD medium (1% yeast extract/2% Bactopeptone/2% Dextrose) at 30° C. in a rotary shaker water bath. Cells were pretreated with Cerulenin at 2 μg/ml for 15 minutes and then incubated for 20-45 minutes with unlabeled myristate, palmitate or fatty acid analog at 100 μM in the presence of either 5 μM [9,10-^3 H(N)]-myristate (22.4 Ci/mmol) or L-[^35 S]methionine (1106 Ci/mmol) at 30 μCi/ml of culture.
Cells were cooled on ice 5 minutes, pelleted at 10,000×g, then broken and extracted by the method of Towler et al., Proc. Natl. Acad. Sci. USA 83, 2812-2816 (1986). Total protein synthesis was assayed by trichloroacetic acid (TCA) precipitation. Proteins were separated by SDS-12% polyacrylamide gel electrophoresis, and [^3 H]fatty acid incorporation into cellular acyl-proteins was assayed by autoradiography followed by laser densitometry.

The subject of series [3] is Saccharomyces cerevisiae strain BJ405. The series can be described thus: toxicity / growth rate of yeast cells. Format: cell-based. The procedure:
as §4
Furthermore, 100 μM myristate and 100 μM analog produced a similar modest reduction (10-15%) in total protein synthesis (measured by the incorporation of [^35 S]methionine into TCA precipitable protein) compared to control cells which were not exposed to exogenous fatty acid.

Substrate in series [4]: C#CCOCCCCCCCCCC(=O)O
The series can be described thus: in vitro yeast NMT assay, kinetics of fatty acid analog substrates with iodinated peptide GNAAS[125I]YRR. Type of series: biochemical. Particulars: other: Table 2; peptide at its Km.
Source text: as §1, §2, §3

Substrate in series [5]: CCCCCCCCCCCCCC(=O)O
Described as above. Type of series: biochemical. Particulars: other: Table 2; peptide at its Km.
Source text: as §1, §2, §3

Substrate in series [6]: CCCCCCCCOCCCCC(=O)O
Described as above. Type of series: biochemical. The conditions noted are these: other: Table 2; peptide at its Km.
Source text: as §1, §2, §3

Substrate in series [7]: CCCCCCCCSCCCCC(=O)O
The description is as above. Format: biochemical. Particulars: other: Table 2; peptide at its Km.
Source text: as §1, §2, §3

Substrate in series [8]: CCCCOCCCCCCCCCCC(=O)O
Described as above. Format: biochemical. The conditions noted are these: other: Table 2; peptide at its Km.
Source text: as §1, §2, §3

Substrate in series [9]: CCCOCCCCCCCCCC(=O)O
The description is as above. Format: biochemical. The conditions noted are these: other: Table 2; peptide at its Km.
Source text: as §1, §2, §3

Substrate in series [10]: CCCSCCCCCCCCCC(=O)O
Described as above. Format: biochemical. The conditions noted are these: other: Table 2; peptide at its Km.
Source text: as §1, §2, §3

Substrate in series [11]: CCOCCCCCCCCCCC(=O)O
The description is as above. Format: biochemical. The conditions noted are these: other: Table 2; peptide at its Km.
Source text: as §1, §2, §3

Substrate in series [12]: CCSCCCCCCCCCCC(=O)O
The series is described as above. Type of series: biochemical. The conditions noted are these: other: Table 2; peptide at its Km.
Source text: as §1, §2, §3

Substrate in series [13]: COCCCCCCCCCCC(=O)O
The description is as above. Format: biochemical. The conditions noted are these: other: Table 2; peptide at its Km.
Source text: as §1, §2, §3

Substrate in series [14]: COCCCCCCCCCCCC(=O)O
The series is described as above. Format: biochemical. Particulars: other: Table 2; peptide at its Km.
Source text: as §1, §2, §3

With `COCCCCCCCCCCCC(=O)O` [CH3 O(CH2)11 COOH, 12-(Methoxy)dodecanoic acid], the “Acyl CoA Vm” value on yeast NMT is listed as ~ 110%. The “partition into water vs myristate” value in series [1] was 20 fold. Further, in [2], the “entry into yeast / competition with labeled myristate for incorporation into yeast protein” value is “can successfully enter yeast and compete with labeled myristate for incorporation into a known myristoylprotein”. In [3], the “growth rates of cells vs 100 μM myristate” value is given as “No difference in the growth rates”. Moreover, in [3] (100 μM), the toxicity to cells entry is listed as “does not appear to be toxic to cells”.

B1: yeast NMT (Saccharomyces cerevisiae S288C) (protein)
chain: T1 sequence (P14743 1-455)
notes: 11,000-fold purified preparation of yeast NMT; from tissue; host or cells: yeast
Turning to B1, the Km – broadly, the substrate concentration at which the rate is half of its maximum – in series [4] is 6.5 µM; in [5], 0.6 µM; in series [6], 1.6 µM; in series [7] it was 1.5 µM; in series [8] it was 1 µM; in series [9], 6.1 µM. For the same molecule, the Michaelis-Menten constant (Km) in series [10] turned out to be 1.5 µM; in series [11], 1.8 µM; in series [12], 1.4 µM; in series [13] it was 6.9 µM; in series [14], 2 µM.
